The source of these data is patent publication US20240287161A1 (NATIONAL UNIVERSITY CORPORATION TOTTORI UNIVERSITY, published 2024).

Assay [1] deals with T1, HCoV-NL63 trimeric S protein (amino acids 22-1293) with T4 foldon, histidine tag and strep-tag (HCoV-NL63, UniProt Q6Q1S2 23-1293).
T1 sequence: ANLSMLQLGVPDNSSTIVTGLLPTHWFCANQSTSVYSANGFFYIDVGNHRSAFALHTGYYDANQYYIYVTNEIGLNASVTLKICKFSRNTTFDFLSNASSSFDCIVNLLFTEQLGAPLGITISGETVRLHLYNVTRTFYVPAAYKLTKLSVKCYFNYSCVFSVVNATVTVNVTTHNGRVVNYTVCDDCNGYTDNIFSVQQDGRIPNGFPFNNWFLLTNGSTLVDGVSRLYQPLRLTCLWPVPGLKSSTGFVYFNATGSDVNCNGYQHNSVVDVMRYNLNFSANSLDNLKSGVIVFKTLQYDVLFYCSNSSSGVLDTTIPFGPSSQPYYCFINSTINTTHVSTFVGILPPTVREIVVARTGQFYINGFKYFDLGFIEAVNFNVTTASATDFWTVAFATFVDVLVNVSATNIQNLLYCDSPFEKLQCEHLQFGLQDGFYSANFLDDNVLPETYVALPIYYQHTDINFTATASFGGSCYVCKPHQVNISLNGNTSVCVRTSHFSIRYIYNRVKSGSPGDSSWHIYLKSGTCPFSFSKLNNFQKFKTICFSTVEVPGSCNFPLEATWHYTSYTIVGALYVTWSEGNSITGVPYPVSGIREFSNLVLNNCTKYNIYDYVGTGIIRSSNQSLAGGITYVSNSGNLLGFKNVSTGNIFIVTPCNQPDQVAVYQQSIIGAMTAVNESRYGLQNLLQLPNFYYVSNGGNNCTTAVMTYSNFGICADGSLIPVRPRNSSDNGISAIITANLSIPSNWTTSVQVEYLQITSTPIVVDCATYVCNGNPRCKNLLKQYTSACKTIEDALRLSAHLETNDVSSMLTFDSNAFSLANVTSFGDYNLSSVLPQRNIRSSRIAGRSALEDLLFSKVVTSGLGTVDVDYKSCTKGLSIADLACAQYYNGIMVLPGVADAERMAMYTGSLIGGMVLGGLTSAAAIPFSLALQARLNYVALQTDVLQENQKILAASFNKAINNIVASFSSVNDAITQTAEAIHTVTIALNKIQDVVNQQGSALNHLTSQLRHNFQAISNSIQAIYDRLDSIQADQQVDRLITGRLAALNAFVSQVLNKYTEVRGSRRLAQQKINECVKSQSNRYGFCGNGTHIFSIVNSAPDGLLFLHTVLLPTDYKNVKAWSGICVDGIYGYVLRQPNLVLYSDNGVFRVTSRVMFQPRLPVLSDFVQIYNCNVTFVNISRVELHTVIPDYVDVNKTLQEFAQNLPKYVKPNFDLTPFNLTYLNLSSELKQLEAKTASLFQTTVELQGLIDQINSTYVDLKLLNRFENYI
In words: ELISA on coated S-trimeric antigen, anti-human IgG-HRP [Human IgG3, NT-193].

The target of assay [2] is T2, HCoV-229E trimeric S protein (amino acids 12-1109) with T4 foldon, histidine tag and strep-tag (HCoV-229E, UniProt P15423 12-1112).
T2 chain: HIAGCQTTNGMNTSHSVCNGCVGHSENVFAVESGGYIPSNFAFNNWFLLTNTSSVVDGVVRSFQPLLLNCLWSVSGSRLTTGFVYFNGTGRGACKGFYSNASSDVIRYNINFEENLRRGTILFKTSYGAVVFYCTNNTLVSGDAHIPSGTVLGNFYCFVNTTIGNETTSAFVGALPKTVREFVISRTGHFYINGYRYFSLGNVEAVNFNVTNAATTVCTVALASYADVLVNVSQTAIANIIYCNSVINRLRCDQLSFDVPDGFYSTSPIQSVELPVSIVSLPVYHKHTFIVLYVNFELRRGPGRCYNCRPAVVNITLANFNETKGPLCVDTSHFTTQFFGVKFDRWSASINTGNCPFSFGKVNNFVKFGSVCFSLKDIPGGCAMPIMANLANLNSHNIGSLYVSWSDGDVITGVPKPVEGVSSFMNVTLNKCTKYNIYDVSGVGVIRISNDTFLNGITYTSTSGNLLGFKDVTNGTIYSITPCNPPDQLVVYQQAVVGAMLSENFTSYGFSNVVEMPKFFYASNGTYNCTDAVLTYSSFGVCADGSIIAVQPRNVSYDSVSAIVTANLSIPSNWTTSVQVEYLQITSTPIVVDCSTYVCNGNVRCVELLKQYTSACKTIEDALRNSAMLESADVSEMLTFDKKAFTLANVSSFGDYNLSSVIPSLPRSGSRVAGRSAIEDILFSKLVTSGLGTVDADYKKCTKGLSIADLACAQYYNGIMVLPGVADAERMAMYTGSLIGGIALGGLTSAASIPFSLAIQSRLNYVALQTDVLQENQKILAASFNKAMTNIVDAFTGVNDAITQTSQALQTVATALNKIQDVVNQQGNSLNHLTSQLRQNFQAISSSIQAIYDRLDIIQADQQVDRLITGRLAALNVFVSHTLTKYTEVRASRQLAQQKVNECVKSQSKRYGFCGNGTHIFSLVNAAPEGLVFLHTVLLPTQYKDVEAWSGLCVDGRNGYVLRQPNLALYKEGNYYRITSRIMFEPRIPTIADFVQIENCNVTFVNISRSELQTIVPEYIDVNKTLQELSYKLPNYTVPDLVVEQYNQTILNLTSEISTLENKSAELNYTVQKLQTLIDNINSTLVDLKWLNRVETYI
The assay is described as above.

B1: NT-193, human IgG3 subclass (antibody, V domains shown)
VH: EVQLQQWGAGLLKPSETLSLTCAVYGGSFSGYYWSWIRQPPGKGLEWIGEINHSGSTNYNPSLKSRVTISVDTSKNQFSLKLSSVTAADTAVYYCARGWDLDYYYGMDVWGQGTTVTVSS
VL: DIRMTQSPSAMSASVGDRVTVTCRASQGIGNYLAWFQLKPGKVPKRLIYAASSLQSGVPARFSGGGSGTEFTLTISSLQPEDFATYYCLQHGFLPWTFGQGTKLEIK
For the molecule B1, the binding result in assay [1] and in assay [2] was “no binding (tested: 1000 ng/ml)” throughout.
